Measurements as given in the DeepSol protein solubility set.

Experiment: soluble on expression in E. coli; label from the status in PepcDB or PDB records

Sequence | soluble on expression in E. coli
MGSDKIHHHHHHMNRLKKLAWGELFMLGKQGKVRYVFTSSNTAGGYCSFMPELLAGLQKIFILKGPAGTGKSSFLRLLGQSMAEQGYEVEVWLSALNPLNPEGIYLPQMEAAVVNGSLPITIDPGYPAGRAEIINLEDYRDRKAAAEKGRDILELVQRVEKHHSKAYNILKSVIQTREELRQLSARHLDNSKFNQIFQELEARLAEEEVRERHYFANAVTADGIISYIEELSTPCRKRYIFKGPEGCGKSTMIAELARKAAEKGQFLEYYHSGLEPERLLMVIISSSQTALIDIGEMEINLKPCDLLVDLGKCLSDYDCSLLGMKNSQVYRNHEAMLLQVQDELENACLAVKKIKKINASFMDYDSIDKKRMEIEQELGSELSKCFCNGIESGL | not soluble
MGSDKIHHHHHHMPRPRRSQVSVEDTPMYHCCSRVVRRAYLCGDDKFSGKNYDHRRGWVEAQLLKLAEVFAIDVAAYAVMSNHLHVVLSIDIYQANRWTGIEVINQWHLLFKGTDITQKFAKGETLEDYEALELTYTIALYRSRLSDISWFMRALNEPIARRANEEDECTGRFWEGRFKSQALLDEAAVLACMVYVDLNPIRSTIAKTPETSDFTSIKRRITAALNGTQPKALLPFVGNERKDMPKGLTFHLKDYLQLVEDTGKAVRNDKRGCISPNSHSILNRLNIPADNWLKIINEFGKLFKGPVGTLQELTAYCEHLEKQRRHYCHACQHLAAS | not soluble
MKSAELKYLDFEDFTKLIALAKEKINPIYSSSFMIYIAAMTGMRFSELLGLTWDNVDFEKGQIYVKRTWDIYKNNFAPTKNDQSVRFLAIDSSTMQVMINYKEQQEKLLKRLEIEPEHPFVFYNIKNGLITNNSLNKQLRNMCKKLGFKKIITCHGLRHTHASTMLYKGINILYVSKRLGHSSLNVTMSVYSHILKLEHHHHHH | not soluble
MKIKQALFTAGYSSFYFDDQQAIKNGAGHDGFIYTGDPVTPGFTSVRQAGECVSVQLILENGAVAVGDCAAVQYSGAGGRDPLFLAEHFIPFLNDHIKPLLEGRDVDAFLPNARFFDKLRIDGNLLHTAVRYGLSQALLDATALASGRLKTEVVCDEWQLPCVPEAIPLFGQSGDDRYIAVDKMILKGVDVLPHALINNVEEKLGFKGEKLREYVRWLSDRILSLRSSPRYHPTLHIDVYGTIGLIFDMDPVRCAEYIASLEKEAQGLPLYIEGPVDAGNKPDQIRMLTAITKELTRLGSGVKIVADEWCNTYQDIVDFTDAGSCHMVQIKTPDLGGIHNIVDAVLYCNKHGMEAYQGGTCNETEISARTCVHVALAARPMRMLIKPGMGFDEGLNIVFNEMNRTIALLQTKD | soluble
MATNAKPVYKRILLKLSGEALQGTEGFGIDASILDRMAQEIKELVELGIQVGVVIGGGNLFRGAGLAKAGMNRVVGDHMGMLATVMNGLAMRDALHRAYVNARLMSAIPLNGVCDNYSWAEAISLLRNNRVVILSAGTGNPFFTTDSAACLRGIEIEADVVLKATKVDGVFTADPAKDPSATMYDQLTYSEVLDKELKVMDLAAFTLARDHKLPIRVFNMNKPGALRRVVMGEKEGTLITELEHHHHHH | not soluble
MSLANKILTEKDTDQIRFSILASGSSGNATLVETGDQKILIDCGLSGKKMEGLFAQVGRDMNDLDAILITHEHSDHIKGLGVLARKYKLPIYANAKTWKAMDNMIGEVSSDQKFQFDMETVKTFGSMQVESFGVSHDAIEPMFYIFHKGNKKFVMITDTGYVSDRMKGHIAGADAYLFESNHDVEMLRMGRYPWNVKRRILGDEGHVSNEDAAIAMSEVITDQTKRIYLGHLSKDNNMKELARMSVTQTLMAEGIDVGGKLEIFDTDPDNATSIFTEGHHHHHH | not soluble
SLQCLRFPGLALPHTRAPSPLGPTRDPVATFLETCREPGSQPAGPASLRAEYLPPSVASIKVSAELLRAALKDGHSGVPLCCATLQWLLAENAAVDVVRARALSSIQGVAPDGANVHLIVREVAMTDLCPAGPIQAVEIQVESSSLADICRAHHAVVGRMQTMVTEQAAQGSSAPDLRVQYLRQIHANHETLLREVQTLRDRLCTEDEASSCATAQRLLQVYRQLRHPSLILL | soluble
MGSDKIHHHHHHMNGLDVLLSNNQNHHFYGVTIGVVTNNKDPKKLGRVKVKFPWLSSEEESYWARVVTLMAGNDRGIYFLPEVDDEVLVAFEQGDMNFPYILGALWNGKDKPPITNEDGKNNQRVIKSRSGHMIVLDDTEENEQIIIQDKTGKNKIVINSKENKMNIQVEKDLTIETKGKIILKSSDDDISIDCKNLQIKTQQNYQLEVGANCTIKAKSKYKLEAQSGLGIKCAAGVKINDGSLEVM | not soluble
MGSDKIHHHHHHMIPEEIYKILRKQRYQIDGHTAVKLCGWVRKKMLEDKNCYKSKFYGIETHRCIQCTPSVIWCQQNCIFCWRVLPRDIGIDISQIKEPKWEEPEVVYEKILAMHKRIIMGYAGVLDRVGEKKFKEALEPKHVAISLSGEPTLYPYLDELIKIFHKNGFTTFVVSNGILTDVIEKIEPTQLYISLDAYDLDSYRRICGGKKEYWESILNTLDILKEKKRTCIRTTLIRGYNDDILKFVELYERADVHFIELKSYMHVGYSQKRLKKEDMLQHDEILKLAKMLDENSSYKLIDDSEDSRVALLQNENRKINPKL | not soluble
MLDTAAIIISQGKKIAYAYAEGVNDNMTQSHFHDFFELYYLLEGERMHMIEGEIYHLTANDFVLFPPHIMHHSYGEKDMPFKRIVLYFSPDLIANDTICQLLSEKELLFVNEGYIPNQILSLLLSLTHEIDVPGKYHDAYICNQLNGLLLNMLRLDFEAVKSIPKTRSAKAVDYIHNHYMEDISVNQLAEILYVSPYHLCHEFKNATGKTIIQYLNTTRILHAQRLMLETDYNITQISREVGFSNLTHFNRTFKKITGVAPREKKKLYQK | not soluble
MTFKPVEICVYGADVICPACVQLPSSKETYEWLEAALRRKYPDQPFVMTYVDIFAPPADDEEKRELAQTIVEEDWVYPVVVIEGNVVAEGNPRLKAICAEMEKFGYRPSAHEGKKAE | not soluble
MGSDKIHHHHHHMMTMRIAMISIHTSPLQQPGSGDAGGMNVYIISIARELARRGVDVDIYTRATRPSQGDVVEVESGLRVINIVAGPYEGLSKEELPTQLAAFAGGVVQFAKCHHMRYDVIHSHYWLSGQVGWLLRDLWNIPLVHTAHTLAAVKNAHRSAGDTEESEARRICEQQLVDNADILVVNTPEETNDLVRHYDANPDSVAVIAPGANVELFTPGTQRNTEQSRRCLGIPLHTKVMAFVGRLQQFKGPEVLLRAVAEMLERDPDRDMRVIMCGGPSGAAATVEHYIELTRSLGIAHRVRFLDPRPPEELVSVYQAADVVAVPSYNESFGLVAMEAQASGTPVVAARVGGLPIAVVDGETGVLVDGHDPIMWADALEQLLDDDPTRQQMGVAAVEHAANFTWAAAAEKLESVYGDAAMLDVAQCHDRYAAGSDRA | not soluble
MGSDKIHHHHHHMKIGFLSRWGATCGVGMHAEILAREFIRMGHEVVVFAPTEESASKEVKYYKRTEAQDPEFVKREIYTEVDNVTEEGWVKEEEILKENLDLLIIETFWRVPVKPLTRLIEKLKIPVISVFHEANIFKAREVVKLPCDKIVVFDRRFYDEILEFYEIPREKVEVISYPVMKPYDAEPERPVSEDKFLFFSFGRQPVEEYCDFLNALKKLRKRFDNVHYWIIRSDGRVDYEAEWITQWQKRPTVEKLYSYLKGSNVHLLPKGNTPNVVVSSTLYQIIASETPIVIRDSRFVETIETDVYGFGPIVKYRNIHDLVHKLELLMLDRELVEDIKKEVRVFVEKYGGDKIAQEFLDLAKTITK | not soluble
MAHTPTMLAAAAPFMPEATGVDPALDALLAGLQAHPARIDPKYLYDALGSSLFAAITQLPEYYPTRCEAEIFATHLEAIARHTGPVRTLIDLGAGDCAKAERLLPCLRPQRYVPIDISTDFLGQAVARVRRAHPWLDVLPLGRDLNAGLDLPEAIDAQGRLFFYPGSSIGNLDPDAALALLASLRAQAGVSGGLLIGVDRVKARAIVEPAYDDALHLTGAFNLNLLRHVNSVLGSDFDVRDWTHVALYNEPRSRMEMHLQARSDIRVRWPGGQRRFQADERIHTENSYKYTIERFVDLLRRAGYGDIRYWSDARDWFSVFSARA | soluble
MKFVDEASILVVAGDGGNGCVSFRREKYIPKGGPDGGDGGDGGDVWMEADENLNTLIDYRFEKSFRAERGQNGASRDCTGKRGKDVTIKVPVGTRVIDQGTGETMGDMTKHGQRLLVAKGGWHGLGNTRFKSSVNRTPRQKTNGTPGDKRELLLELMLLADVGMLGMPNAGKSTFIRAVSAAKPKVADYPFTTLVPSLGVVRMDNEKSFVVADIPGLIEGAAEGAGLGIRFLKHLERCRVLLHLIDIDPIDGTDPVENARIIISELEKYSQDLATKPRWLVFNKIDLLDKVEAEEKAKAIAEALGWEDKYYLISAASGLGVKDLCWDVMTFIIENPVVQAEEAKQPEKVEFMWDDYHRQQLEEIAEEDDEDWDDDWDEDDEEGVEFIYKR | soluble
GSMLGMIRNSLFGSVETWPWQVLSTGGKEDVSYEERACEGGKFATVEVTDKPVDEALREAMPKIMKYVGGTNDKGVGMGMTVPVSFAVFPNEDGSLQKKLKVWFRIPNQFQGSPPAPSDESVKIEEREGITVYSTQFGGYAKEADYVAHATQLRTTLEGTPATYQGDVYYCAGYDPPMKPYGRRNEVWLVKA | soluble
MNAGSDPVVIVSAARTIIGSFNGALAAVPVQDLGSTVIKEVLKRATVAPEDVSEVIFGHVLAAGCGQNPVRQASVGAGIPYSVPAWSCQMICGSGLKAVCLAVQSIGIGDSSIVVAGGMENMSKAPHLAYLRTGVKIGEMPLTDSILCDGLTDAFHNCHMGITAENVAKKWQVSREDQDKVAVLSQNRTENAQKAGHFDKEIVPVLVSTRRGLIEVKTDEFPRHGSNIEAMSKLKPYFLTDGTGTVTPANASGINDGAAAVVLMKKSEADKRGLTPLARIVSWSQVGVEPSIMGIGPIPAIKQAVTKAGWSLEDVDIFEINEAFAAVSAAIVKELGLNPEKVNIEGGAIALGHPLGASGCRILVTLLHTLERMGRSRGVAALCIGGGMGIAMCVQRE | soluble
MLLNEKDFKNEGVKIAALIMAESARTAPKSKGEDTIEIVYVDGEEMEKIAAKMEEMAEGGDKDFIRDAESVRKSQAILLIGAKGDRTVGVNCQACGFESCSEFKKADRKGENFVGPNCAFRMIDLGIALGSAVKVSAMLGIDTRIMYRIGIAAKKLGMIDADVVMGVPLSALGKSPYFDRAPKK | not soluble
MLLEEVRAGDRLSGAAARGDVQEVRRLLHRELVHPDALNRFGKTALQVMMFGSTAIALELLKQGASPNVQDTSGTSPVHDAARTGFLDTLKVLVEHGADVNVPDGTGALPIHLAVQEGHTAVVSFLAAESDLHRRDARGLTPLELALQRGAQDLVDILQGHMVAPL | soluble
SLRLLLELKALNSIDKKQLSNYLIQGFIYNILKNTEYSWLHNWKKEKYFNFTLIPKKDIIENKRYYLIISSPDKRFIEVLHNKIKDLDIITIGLAQFQLRKTKKFDPKLRFPWVTITPIVLREGKIVILKGDKYYKVFVKRLEELKKYNLIKKKEPILEEPIEISLNQIKDGWKIIDVKDRYYDFRNKSFSAFSNWLRDLKEQSLRKYNNFCGKNFYFEEAIFEGFTFYKTVSIRIRINRGEAVYIGTLWKELNVYRKLDKEEREFYKFLYDCGLGSLNSMGFGFVNTKKNSAR | soluble
MSNIIARFHKIQVQDGVKVWYREAGAAGNPTILLLHGFPTSSNMFRNLIPLLAGQFHIIAPDLPGFGFTETPENYKFSFDSLCESIGYLLDTLSIEKFAMYIFDYGSPVGFRLALKFPSRITGIVTQNGNAYEEGLDDRFWGPLKEYWKSYQSDPVFVKSLIPYLEDPANVICQYHDGVPAIESVDPAAYTLDIALIQRTGQTDIQLRLFFDYQNNIKLYPAFQKFLRDSKIPVLVAWGANDTIFSVAGAEAYRKDVDNLKVVYYDTGHFALETHVVAIAEEIISMFAEN | soluble
